One assay has as its target HLA-B*15:03. Put plainly: IEDB peptide-MHC binding, purified MHC/competitive/radioactivity; filed as Kd, often an IC50 or EC50 that approximates it; ≥ and ≤ were set here for values at or beyond the usual limits of such assays. The note with it: source organism: Vaccinia virus WR.
Assay [1] has as its target HLA-B*44:02. The description is as above.
The next assay concerns the target HLA-B*44:03. The assay is described as above.
In another assay the target is HLA-B*48:01. The experiment in a line: IEDB peptide-MHC binding, purified MHC/direct/fluorescence; filed as Kd, often an IC50 or EC50 that approximates it; ≥ and ≤ were set here for values at or beyond the usual limits of such assays.
The target in assay [2] is HLA-B*15:01. The experiment in a line: IEDB peptide-MHC binding, purified MHC/competitive/radioactivity; filed as Kd, often an IC50 or EC50 that approximates it; ≥ and ≤ were set here for values at or beyond the usual limits of such assays. The note with it: source organism: Vaccinia virus WR.
Assay [3] has as its target HLA-A*02:01. The experiment in a line: IEDB peptide-MHC binding, purified MHC/competitive/fluorescence; ≥ and ≤ were set here for values at or beyond the usual limits of such assays.
For a further assay, the target named is HLA-A*24:02. Described as above.
For assay [4], the target named is HLA-B*15:01. Described as above.
The next assay concerns the target HLA-A*01:01. Put plainly: IEDB peptide-MHC binding, purified MHC/direct/fluorescence; filed as Kd, often an IC50 or EC50 that approximates it; ≥ and ≤ were set here for values at or beyond the usual limits of such assays. Conditions: source organism: Escherichia coli.
For assay [5], the target named is HLA-A*02:01. The assay is described as above. The note with it: source organism: Salmonella enterica.
The target of another assay is HLA-A*03:01. The assay is described as above. Conditions: source organism: Salmonella enterica.
The target in the next assay is HLA-A*11:01. The description is as above. Conditions: source organism: Salmonella enterica.
The next assay addresses HLA-A*24:03. The description is as above. Conditions: source organism: Salmonella enterica.
The next assay addresses HLA-A*26:01. Described as above. The note with it: source organism: Salmonella enterica.
The next assay concerns the target HLA-A*31:01. The assay is described as above. The note with it: source organism: Salmonella enterica.
A further assay has as its target HLA-A*69:01. The description is as above. The note with it: source organism: Salmonella enterica.
A further assay deals with HLA-B*07:02. The assay is described as above. The note with it: source organism: Salmonella enterica.
Assay [6] has as its target HLA-B*08:01. The assay is described as above. Conditions: source organism: Salmonella enterica.
In assay [7] the target is HLA-B*15:01. The assay is described as above. Conditions: source organism: Salmonella enterica.
The next assay concerns the target HLA-B*27:05. Described as above. Conditions: source organism: Salmonella enterica.
Assay [8] has as its target HLA-B*40:01. The assay is described as above. Conditions: source organism: Salmonella enterica.
The target in assay [9] is HLA-B*44:02. The description is as above.
The target of the next assay is HLA-B*58:01. Described as above. The note with it: source organism: Salmonella enterica.
Assay [10] deals with HLA-B*08:01. Put plainly: IEDB peptide-MHC binding, purified MHC/competitive/radioactivity; filed as Kd, often an IC50 or EC50 that approximates it; ≥ and ≤ were set here for values at or beyond the usual limits of such assays. Conditions: source organism: Vaccinia virus WR.
A further assay deals with HLA-A*30:01. The assay is described as above. Conditions: source organism: Vaccinia virus WR.
Another assay concerns the target HLA-A*32:01. Described as above. The note with it: source organism: Vaccinia virus WR.
The target of assay [11] is HLA-B*40:01. Described as above. Conditions: source organism: Dengue virus 1 Singapore/S275/1990.
Another assay addresses HLA-B*18:01. The experiment in a line: IEDB peptide-MHC binding, purified MHC/direct/fluorescence; filed as Kd, often an IC50 or EC50 that approximates it; ≥ and ≤ were set here for values at or beyond the usual limits of such assays. The note with it: source organism: Dengue virus.
Setting [12] is: source organism: Dengue virus 1 Singapore/S275/1990.
The mark [13] stands for this setting: source organism: Dengue virus 2 Jamaica/1409/1983.
[14] abbreviates: source organism: Vaccinia virus WR.
Where [15] appears, read: source organism: Zaire ebolavirus.
The mark [16] stands for this setting: source organism: Dengue virus 1 Brazil/97-11/1997.
Where [17] appears, read: source organism: Dengue virus 4 Philippines/H241/1956.
The mark [18] stands for this setting: source organism: Dengue virus 3 Martinique/1243/1999.
The mark [19] stands for this setting: source organism: Vaccinia virus Copenhagen.
Setting [20] is: source organism: Sudan ebolavirus.

The results in this text go back to the Immune Epitope Database (IEDB).

By Kd is commonly meant the constant that tells how readily two partners part at equilibrium. The term IC50 denotes the concentration that gives 50% inhibition. Read a low IC50 as greater potency in that assay.

Take LEFNTPFVF: the dissociation constant Kd with HLA-B*15:03 was found to be 10.4 nM.

For the sequence SEMIIPKIY, the equilibrium dissociation constant (Kd) was determined as 8.61 nM with HLA-B*44:02 [1] (setting [12]) and 12.8 nM in the assay with HLA-B*44:03 (setting [12]).

As for RRLAATTEK, the dissociation constant (Kd) with HLA-B*48:01 (source organism: West Nile virus) is at least 20000 nM.

On to FINMTGNHF, for which the Kd came out at 16.1 nM with HLA-B*15:01 [2] and 34.2 nM in the assay with HLA-B*15:03.

For the sequence MEDKTPVESW, the results for the Kd with HLA-B*44:02 [1] (setting [13]) and with HLA-B*44:03 (setting [13]) were 33.2 nM and 70.9 nM, respectively.

Turning to CMIRWLGGI, the IC50 with HLA-A*02:01 [3] (setting [14]) was 428 nM; in the assay with HLA-A*24:02 (setting [14]), 4000 nM; in the assay with HLA-B*15:01 [4] (setting [14]) it was 30300 nM.

As to RQMVNDMIF, the dissociation constant (Kd) with HLA-B*15:03 amounted to 1.25 nM.

In the case of FQQTNAMVT, the results for the IC50 in the assay with HLA-A*02:01 [3] (setting [15]) and with HLA-B*15:01 [4] (setting [15]) were 11000 nM and 36100 nM, respectively.

In the case of IETPNELSF, the Kd in the assay with HLA-B*15:03 amounted to 288 nM.

With KEAVEDERFW, the Kd came out at 45.4 nM in the assay with HLA-B*44:02 [1] (setting [16]) and 305 nM with HLA-B*44:03 (setting [16]).

For the sequence GEGLHRLGY, the Kd was 11.5 nM in the assay with HLA-B*44:02 [1] (setting [17]) and 17.6 nM with HLA-B*44:03 (setting [17]).

Regarding VINRLGADL, the IC50 was at least 76600 nM in the assay with HLA-A*02:01 [3] (setting [14]) and at least 105000 nM with HLA-B*15:01 [4] (setting [14]).

Sequence WKWFYKKYL came in with a Kd in the assay with HLA-B*48:01 (source organism: Campylobacter jejuni subsp. jejuni HB93-13) of 271 nM.

VVNYEAGEW: the half-maximal inhibitory concentration (IC50) with HLA-A*24:02 (setting [15]) was at least 75500 nM; with HLA-B*15:01 [4] (setting [15]) it was at least 119000 nM.

For the sequence WTDLYTSMS, the Kd with HLA-A*01:01 is 81.7 nM; in the assay with HLA-A*02:01 [5] it was at least 20000 nM; in the assay with HLA-A*03:01, at least 20000 nM; with HLA-A*11:01, at least 20000 nM; in the assay with HLA-A*24:03, at least 20000 nM; with HLA-A*26:01 it was at least 20000 nM. The Kd with HLA-A*31:01, with HLA-A*69:01, in the assay with HLA-B*07:02, in the assay with HLA-B*08:01 [6], in the assay with HLA-B*15:01 [7] and in the assay with HLA-B*27:05 was at least 20000 nM throughout. Besides, the Kd with HLA-B*40:01 [8], in the assay with HLA-B*44:02 [9] (source organism: Salmonella enterica) and in the assay with HLA-B*58:01 was at least 20000 nM throughout.

For the sequence KEEHNSTWHY, the equilibrium dissociation constant (Kd) with HLA-B*44:02 [1] (setting [18]) stood at 183 nM; in the assay with HLA-B*44:03 (setting [18]), 10500 nM.

With VVANVIGLS, the IC50 with HLA-A*02:01 [3] (setting [19]) was 26600 nM; in the assay with HLA-B*15:01 [4] (setting [19]), 46900 nM.

For EEEQTLTILI, the Kd with HLA-B*44:02 [1] (setting [13]) was determined as 17.3 nM; in the assay with HLA-B*44:03 (setting [13]), 128 nM.

In the case of FQLNDTIHL, the IC50 with HLA-A*02:01 [3] (setting [20]) amounted to 1520 nM; in the assay with HLA-A*24:02 (setting [20]), 36900 nM; with HLA-B*15:01 [4] (setting [20]), 50500 nM.

As to LQYVHINEL, in the assay with HLA-B*15:03, the Kd was 3.66 nM.

Take NERGKSLLF: the Kd in the assay with HLA-B*44:02 [1] (setting [18]) came to 467 nM; in the assay with HLA-B*44:03 (setting [18]), 122 nM.

Consider ELYMYFNHV, for which the Kd in the assay with HLA-B*08:01 [10] is 238 nM; in the assay with HLA-B*15:01 [2], 1330 nM; with HLA-B*15:03 it was 414 nM.

As for KQYKFYNQI, the dissociation constant (Kd) with HLA-A*30:01 is 1340 nM; with HLA-A*32:01 it was 10600 nM; in the assay with HLA-B*08:01 [10] it was at least 77700 nM; in the assay with HLA-B*15:01 [2] it was 6630 nM; with HLA-B*15:03, 121 nM.

As to KLLSHFYPA, the equilibrium dissociation constant (Kd) with HLA-A*30:01 is 3300 nM; with HLA-A*32:01 it was 129 nM; with HLA-B*08:01 [10], 81 nM; with HLA-B*15:01 [2], 38.7 nM; with HLA-B*15:03, 5.4 nM.

As to WEGNPGRFW, the figures for the Kd with HLA-B*44:02 [1] (setting [13]) and with HLA-B*44:03 (setting [13]) were 12.9 nM and 89.4 nM, respectively.

Consider KKVYTFFKF, for which the equilibrium dissociation constant (Kd) in the assay with HLA-B*15:03 was 3.63 nM.

Consider NYLFGGFST, for which the figures for the IC50 with HLA-A*02:01 [3] (source organism: Variola virus), with HLA-A*24:02 (source organism: Variola virus) and with HLA-B*15:01 [4] (source organism: Variola virus) were 23400 nM, 1650 nM and at least 289000 nM, respectively.

Regarding VGRVNPGTY, the IC50 with HLA-A*24:02 (source organism: Variola virus) was 5450 nM; with HLA-B*15:01 [4] (source organism: Variola virus), 29700 nM.

With RTRNMFRKK, the figures for the Kd with HLA-A*30:01 and in the assay with HLA-B*15:03 were 0.0892 nM and at least 51200 nM, respectively.

Take AENHHHATM: the Kd came to 10.1 nM in the assay with HLA-B*40:01 [11], 27.3 nM with HLA-B*44:02 [1] (setting [12]) and 115 nM with HLA-B*44:03 (setting [12]).

Turning to EQFVGTNSI, in the assay with HLA-B*15:03, the Kd worked out at 194 nM.

Consider LYRPNIPLK, for which the Kd with HLA-A*30:01 was 3.45 nM; with HLA-A*32:01, at least 77800 nM; in the assay with HLA-B*08:01 [10], at least 33300 nM; with HLA-B*15:01 [2], at least 55800 nM; with HLA-B*15:03, at least 69200 nM.

Consider SQYANCSSI, for which the IC50 with HLA-A*24:02 (setting [19]) was at least 82700 nM; with HLA-B*15:01 [4] (setting [19]), 7410 nM.

With KMSFLPIIF, the dissociation constant Kd stood at 6.72 nM with HLA-A*32:01 and 0.08 nM with HLA-B*15:03.

In the assay with HLA-B*15:01 [4] (source organism: Variola virus), SMFLMTATL returned a half-maximal inhibitory concentration (IC50) of 1120 nM.

For SMKTVFQVF, the values for the Kd with HLA-B*08:01 [10], in the assay with HLA-B*15:01 [2] and with HLA-B*15:03 were 179 nM, 1.57 nM and 3.81 nM, respectively.

LHHAYQGDY gave a concentration for half-maximal inhibition (IC50) with HLA-B*15:01 [4] (setting [15]) of at least 206000 nM.

Turning to YDEDNPYKTW, the Kd with HLA-B*44:02 [1] (setting [16]) is 470 nM.

On to FKINIFMAF, for which the dissociation constant (Kd) was 10600 nM with HLA-B*08:01 [10] and 10.2 nM in the assay with HLA-B*15:03.

As for AELTGYGTV, the equilibrium dissociation constant (Kd) was 472 nM in the assay with HLA-B*18:01 and at least 20000 nM with HLA-B*44:02 [9] (source organism: Dengue virus).

For the sequence ASTNLGSSF, the dissociation constant (Kd) with HLA-B*15:03 worked out at 164 nM.
